The assay deals with CgYps1 (C. glabrata (endogenous in derivatives of strain BG2)). The experiment in a line: co-IP; precleared lysates (6 mg) incubated with anti-CgYps1 antibody-conjugated beads for 12 h at 4°C; blots with anti-CgYps1 and anti-CgPst2; cells untreated or treated with menadione (90 μM for 90 min).

Substance “CgPst2 (from UniProt Q6FM13 1-198) (natural protein)” yielded an amount of CgPst2 co-precipitated in MD-treated against untreated cells of 40 % lower.
